Target: Vaccinia DNA topoisomerase I (Vaccinia virus, UniProt P68698 P68698:1-314)
Assay: covalent topoisomerase-DNA complex isolated on SP Sepharose; cleaved linker band seen after proteinase K
Conditions: tags: Invitrogen; nicked duplex with 3' overhang
Method: The topoisomerase-charged promoter linker was purified using an Akta-FPLC and Unicom software ver. 4.00 (Amersham). 360 μl of the linking reaction was loaded onto a 1 ml HiTrap SP Sepharose HP pre-packed column (Amersham) pre-equilibrated in buffer A (50 mM Tris-HCl pH 7.0), washed at 0.5 ml/min with 11 ml buffer A (collected in 1 ml fractions), and eluted with a 5 ml, 0-100% buffer B (50 mM Tris-HCl pH 7.0, 1M NaCl) gradient followed by 3 ml of 100% buffer B. The eluate was collected in 0.2 ml fractions.

B1: T7 TOPO linker (T7topG/T7botG/TOPO-5) (dsDNA)
DNA 1: GACTCGTAATACGACTCACTATAGGGCCCTTATTCCGATAGTG
DNA 2: AGGGCCCTATAGTGAGTCGTATTACGAGTCAAAAAAAAAAAA
DNA 3: CAACACTATCGGAATA
modifications: 5'-phosphate on each oligo
B1: binds.

From US20040265863, “Methods and compositions for synthesis of nucleic acid molecules using multiple recognition sites” (Invitrogen Corporation, published 2004)
